Laboratory results as given in patent US20090029376.
Changes are numbered by the printed parent chain.

Assays:
Assay in all cases: cleavage_in_vitro
[1] = target: T1, HindIII (Haemophilus influenzae Rd) (UniProt P43870); details: NEB4, 37 C
T1 sequence: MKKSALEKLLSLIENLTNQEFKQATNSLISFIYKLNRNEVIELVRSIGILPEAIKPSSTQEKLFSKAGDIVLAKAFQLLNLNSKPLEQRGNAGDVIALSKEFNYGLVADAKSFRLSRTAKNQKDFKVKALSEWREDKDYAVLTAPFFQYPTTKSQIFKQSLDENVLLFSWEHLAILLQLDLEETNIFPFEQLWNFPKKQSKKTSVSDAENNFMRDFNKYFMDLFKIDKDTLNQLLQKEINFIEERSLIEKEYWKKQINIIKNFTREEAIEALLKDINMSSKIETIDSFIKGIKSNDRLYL

[2] = tested on: T2, SspI-HF Y98F (Sphaerotilus species); details: NEB4, 37 C
T2 sequence: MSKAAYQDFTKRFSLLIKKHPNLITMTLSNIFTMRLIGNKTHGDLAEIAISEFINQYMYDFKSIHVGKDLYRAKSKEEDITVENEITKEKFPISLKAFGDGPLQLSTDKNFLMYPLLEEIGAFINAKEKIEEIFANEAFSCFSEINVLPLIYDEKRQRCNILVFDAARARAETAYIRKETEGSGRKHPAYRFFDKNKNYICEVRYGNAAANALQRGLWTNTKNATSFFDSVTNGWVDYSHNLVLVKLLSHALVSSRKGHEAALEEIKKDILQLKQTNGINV

[3] = tested on: T3, SapI (Saccharopolyspora sp.); details: NEB4, 37 C
T3 sequence: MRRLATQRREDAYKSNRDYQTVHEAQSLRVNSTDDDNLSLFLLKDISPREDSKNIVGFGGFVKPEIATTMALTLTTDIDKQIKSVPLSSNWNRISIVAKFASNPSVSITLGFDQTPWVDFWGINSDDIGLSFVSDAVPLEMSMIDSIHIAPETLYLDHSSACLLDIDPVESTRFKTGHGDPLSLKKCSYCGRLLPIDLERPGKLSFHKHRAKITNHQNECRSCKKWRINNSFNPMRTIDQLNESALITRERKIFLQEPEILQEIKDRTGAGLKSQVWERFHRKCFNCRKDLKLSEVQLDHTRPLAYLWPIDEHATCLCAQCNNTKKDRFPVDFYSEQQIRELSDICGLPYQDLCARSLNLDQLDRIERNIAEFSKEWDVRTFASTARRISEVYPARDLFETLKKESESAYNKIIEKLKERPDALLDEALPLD

[4] = tested on: T4, SspI (Sphaerotilus species); details: NEB4, 37 C
T4 sequence: T2 sequence with F98Y

[5] = target: EcoRI-HF K62E (Escherichia coli RY13) (UniProt P00642); details: NEB4, 37 C
[6] = target: EcoRI(K62A) K62A (Escherichia coli RY13) (UniProt P00642); details: NEB4, 37 C
[7] = target: T5, PstI (Providencia stuartii 164) (UniProt P00640); details: NEB4, 37 C
T5 sequence: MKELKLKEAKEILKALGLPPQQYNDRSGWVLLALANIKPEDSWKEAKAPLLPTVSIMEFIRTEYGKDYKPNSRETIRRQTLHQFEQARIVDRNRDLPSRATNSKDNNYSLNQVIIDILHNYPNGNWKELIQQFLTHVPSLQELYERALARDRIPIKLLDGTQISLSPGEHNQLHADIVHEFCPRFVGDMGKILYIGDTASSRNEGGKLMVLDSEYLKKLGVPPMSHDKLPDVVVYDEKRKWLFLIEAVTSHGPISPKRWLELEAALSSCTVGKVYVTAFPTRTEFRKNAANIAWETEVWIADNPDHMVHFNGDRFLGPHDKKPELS

[8] = tested on: T6, SbfI-HF K251A (Streptomyces species Bf-6); details: NEB4, 37 C
T6 sequence: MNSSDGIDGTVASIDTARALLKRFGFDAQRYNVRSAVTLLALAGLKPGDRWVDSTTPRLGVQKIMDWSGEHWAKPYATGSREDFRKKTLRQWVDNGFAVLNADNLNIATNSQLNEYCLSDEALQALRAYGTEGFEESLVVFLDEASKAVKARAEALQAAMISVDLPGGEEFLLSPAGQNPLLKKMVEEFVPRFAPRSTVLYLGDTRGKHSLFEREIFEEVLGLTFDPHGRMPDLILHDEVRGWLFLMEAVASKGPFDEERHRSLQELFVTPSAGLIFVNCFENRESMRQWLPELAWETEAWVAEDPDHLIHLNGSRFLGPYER

[9] = tested on: T7, BstXI (Bacillus stearothermophilus); details: NEB4, 55 C; Table 2 prints 4
T7 sequence: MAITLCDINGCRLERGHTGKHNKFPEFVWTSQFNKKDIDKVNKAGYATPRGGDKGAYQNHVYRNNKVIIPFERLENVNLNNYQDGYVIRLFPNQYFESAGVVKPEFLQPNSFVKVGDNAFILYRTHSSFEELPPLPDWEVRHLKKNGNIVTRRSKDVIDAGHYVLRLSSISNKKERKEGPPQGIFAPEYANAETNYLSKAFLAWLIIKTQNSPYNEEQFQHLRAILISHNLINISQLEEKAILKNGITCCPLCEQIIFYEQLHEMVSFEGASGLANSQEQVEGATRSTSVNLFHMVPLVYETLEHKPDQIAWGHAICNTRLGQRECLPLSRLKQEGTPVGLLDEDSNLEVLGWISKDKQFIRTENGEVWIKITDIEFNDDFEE

[10] = tested on: T8, SphI-HF K100A (Streptomyces phaeochromogenes); details: NEB4, 37 C
T8 sequence: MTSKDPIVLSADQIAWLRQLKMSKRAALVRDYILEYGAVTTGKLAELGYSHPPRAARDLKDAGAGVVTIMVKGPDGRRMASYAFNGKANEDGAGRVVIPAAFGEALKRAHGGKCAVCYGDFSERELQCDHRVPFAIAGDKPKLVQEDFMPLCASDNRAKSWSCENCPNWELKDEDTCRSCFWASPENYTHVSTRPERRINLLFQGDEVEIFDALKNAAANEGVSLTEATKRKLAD

Substance: lambda phage DNA
- activity (fidelity index) [1]: 32
- activity (fidelity index) [2]: 500
- activity (fidelity index) [3]: 16
- activity (fidelity index) [4]: 16
- activity (fidelity index) [5]: 16000
- activity (fidelity index) [6]: 32000
- activity (fidelity index) [7]: 8
- activity (fidelity index) [8]: 250
- activity (fidelity index) [9]: 32
- activity (fidelity index) [10]: > 2000
